Several values for one entry are separate records, joined by “and”; a condition that tells them apart may be missing. Equal values may be shown once. Marks after values point to notes of the source that are not given here.
B1: rLZ-8-HSA: fusion protein of ganoderma immunoregulatory protein (LZ-8) and human serum albumin, linker GGGGSS, SEQ ID NO. 1 (protein)
chain: SDTALIFRLAWDVKKLSFDYTPNWGRGNPNNFIDTVTFPKVLTDKAYTYRVAVSGRNLGVKPSYAVESDGSGKVNFLEYNSGYGIADTNTIGVFVVDPDTNNDFIIAGWNGGGGSSMKWVTFISLLFLFSSAYSRGVFRRDAHKSEVAHRFKDLGEENFKALVLIAFAGYLGGCPFEDHVKLVNEVTEFAKTCVADESAENCDKSLHTLFGDKLCTVATLRETYGEMADCCAKGEPERNECFLGHKDDNPNLPRLVRPEVDVMCTAFHDNEETFLKKYLYEIARRHPYFYAPELLFFAKRYKAAFTECCGAADKAACLLPKLDELRDEGKASSAKGRLKCASLGKFGERAFKAWAVARLSGRFPKAEFAEVSKLVTDLTKVHTECCHGDLLECADDRADLAKYICENGDSISSKLKECCEKPLLEKSHCIAEVENDEMPADLPSLAADFVESKDVCKNYAEAKDVFLGMFLYEYARRHPDYSVVLLLRLAKTYETTLEKCCAAADPHECYAKVFDEFKPLVEEPGNLIKGNCELFEGLGEYKFGNALLVRYTKKVPGVSTPTLVEVSRNLGKVGSKCCKHPEAKRMPCAEDYLSVVLNGLCVLHEKTPVSDRVTKCCTESLVNRRPCFSALEVDETYVPKEFNAETFTFHADICTLSEKERGIKKGTALVELVKHKPKATKEGLKAVMDDFAAFVEKCCKADDKETCFAEEGKKLVAASGAALGL
modifications: rLZ-8-HSA sequence
B2: rLZ-8: recombinant ganoderma immunoregulatory protein which is not fused, comparator (protein, UniProt P14945 2-111, looked up)
Immunomodulatory protein Ling …: SDTALIFRLAWDVKKLSFDYTPNWGRGNPNNFIDTVTFPKVLTDKAYTYRVAVSGRNLGVKPSYAVESDGSQKVNFLEYNSGYGIADTNTIQVFVVDPDTNNDFIIAQWN

Experiments:
[1] = system: mouse S180 Ehrlich ascites tumor; experiment: in vitro inhibition effect on mouse S180 Ehrlich ascites tumor, WST-1 method; assay type: cell-based; settings: 24 h, x ± s, n = 9
Procedure: (§1) In vitro experiment: testing the inhibition effect of the fusion protein rLZ-8-HSA on the mouse 5180 Ehrlich ascites tumor through the WST-1 method, preparing tissue suspension of the mouse S180 Ehrlich ascites tumor; adding 100 μl the tissue suspension into 900 μl 2% glacial acetic acid and counting with a microscope; adjusting a tissue concentration to 2×10^5/ml with DMEM comprising 2% calf serum; respectively preparing the fusion protein rLZ-8-HSA and the rLZ-8 with same molar concentration gradient, wherein there are 3 gradient concentrations, each concentration occupies 9 wells with 100 μl per well; adding tissue suspension with a concentration of 2×10^5/ml with 100 μl per well; shaking for evenly mixing, and then putting into a 37° C., 5% CO2 incubation device to incubate for 24 h; after incubation, adding WST-1 with 20 μl per well; putting into the 37° C., 5% CO2 incubation device to incubate for 3 h, then testing OD450 (with a BIO-RAD); wherein results are listed in table 5.

[2] = system: mouse spleen cells; experiment: promotion of mouse spleen cell proliferation, WST-1 method; assay type: cell-based; settings: for OD450, promotion of cell proliferation: 24 h, x ± s, n = 9
Procedure: Testing effects of the fusion proteins on mouse spleen cell proliferation by a WST-1 method, which illustrates strength of biological activity, wherein according to the present invention, BALB/c female mice are used, whose weight is controlled at 20-22 g; executing the mice by stretching necks thereof, taking out spleens under a sterile condition, and putting into a plate with 5 ml DMEM comprising 10% calf serum; cracking the spleens with tweezers, filtering tissue suspension with gauze for removing tissue blocks, and preparing cell suspension of spleen cells; adding 100 μl the tissue suspension into 900 μl 2% glacial acetic acid for counting with a microscope; adjusting a cell concentration to 5×10^6/ml with DMEM comprising 2% calf serum; respectively preparing the fusion proteins and the rLZ-8 with same molar concentration gradient, wherein there are 3 gradient concentrations, each concentration occupies 9 wells with 100 μl per well; adding tissue suspension with a concentration of 5×10^6/ml with 100 μl per well; shaking for evenly mixing, and then putting into a 37° C., 5% CO2 incubation device to incubate for 24 h; after incubation, adding WST-1 with 20 μl per well; putting into the 37° C., 5% CO2 incubation device to incubate for 3 h, then testing OD450 (with a BIO-RAD); wherein results are listed in table 1.

[3] = system: melanoma; experiment: in vitro inhibition effect on melanoma, WST-1 method; assay type: cell-based; settings: 24 h, x ± s, n = 9
Procedure: as §1, with “the melanoma” for “the mouse 5180 Ehrlich ascites tumor”, “through a” for “through the”, “the melanoma;” for “the mouse S180 Ehrlich ascites tumor;”, “table 3.” for “table 5.”

[4] = system: mouse transplanted tumor S180; experiment: subcutaneous inhibition of mouse transplanted tumor S180; assay type: in vivo; settings: tail vein, 10 days
Procedure: In vivo experiment: experimental material: mice weighing 18-22 g from Laboratory Animal Center of Jilin University; Ehrlich ascites tumor cell strains are provided by a lab of the inventor; cytoxan (CTX) is from Jiangsu Hengrui Medicine Co., Ltd, whose batch number is 06101921; 5180 ascites tumor and soild tumor experimental groups respectively comprises a normal control group, a negative control group, a positive control group, an rLZ-8 low-dosage group (0.25 mg·kg^−1), an rLZ-8 middle-dosage group (0.5 mg·kg^−1), an rLZ-8 high-dosage group (1 mg·kg^−1), an rLZ-8-HSA low-dosage group (0.25 mg·kg^−1), an rLZ-8-HSA middle-dosage group (0.5 mg·kg^−1), and an rLZ-8-HSA high-dosage group (1 mg·kg^−1), wherein dosages of the rLZ-8-HSA groups are judged from LZ-8 dosage, wherein each group comprises 10 mice.
tumor inhibition rate (%)=(average tumor weight of control groups−average tumor weight of experimental groups)/average tumor weight of control groups×100%.

[5] = system: platelets; experiment: treatment of mouse thrombocytopenia caused by cyclophosphamide, platelet count; assay type: in vivo; settings: for platelets after: after cyclophosphamide, before treatment; for platelets before: baseline before cyclophosphamide
Procedure: Experimental medicine: preparing a 19.25 μg·kg^−1 and a 9.625 μg·kg^−1 dosage groups of the recombinant ganoderma immunoregulatory protein (rLZ-8) with sterile injection water, and 0.2 ml per mouse; and preparing a 19.25 μg·kg^−1 and a 9.625 μg·kg^−1 dosage groups (judging from the LZ-8) of the fusion protein rLZ-8-HSA of the recombinant ganoderma immunoregulatory protein.
Positive control medicine: thrombopoietin (THPO) from Shenyang 3SBio Inc., with a dosage of 770 μg·kg^−1/d and 0.2 ml per mouse.
Chemotherapy medicine: cyclophosphamide (Cy) from Jiangsu Hengrui Medicine Co., Ltd, whose batch number is 12112121, 200 mg/bottle; preparing into 100 mg·kg^−1, 0.2 ml per mouse with sterile injection water.
Platelet dilution: urea: 1.3 g; sodium citrate: 0.5 g; formaldehyde: 0.1 ml; adding distilled water to 100 ml for mixing, then filtering for further utilization.
Experimental method: dividing experimental animals into 5 groups, wherein each group comprises 10 mice with 5 males and 5 females; except for a normal control group (injected with normal saline having an equal volume), abdominally injecting the cyclophosphamide to the mice with a dosage of 100 mg·kg^−1, 0.2 ml per mouse per day, and lasting for three days; when a platelet quantity decreased to below 300×10^9/L, subcutaneously injecting the rLZ-8, the fusion protein rLZ-8-HAS (19.25 μg·kg^−1, 9.625 μg·kg^−1, 0.2 ml·per mouse per day) and the positive medicine (THPO 770 μg·kg^−1, 0.2 ml·per mouse per day) according to the above groups with corresponding dosages, and injecting the normal saline having the equal volume to the normal control group and a CP group; respectively sampling mouse tail vein blood 3 d, 7 d and 14 d after treatment, counting platelets with high power lens, wherein results thereof are listed in table 7.

[6] = low-dosage 0.25 mg·kg^−1 (LZ-8)
[7] = middle-dosage 0.5 mg·kg^−1 (LZ-8)
[8] = 9.625 μg·kg^−1 (LZ-8) subcutaneously per day
[9] = 19.25 μg·kg^−1 (LZ-8) subcutaneously per day

| Molecule | OD450, inhibition effect on mouse S180 Ehrlich ascites tumor ([1]; protein 5.0 × 10^−9 mol/L) | OD450, inhibition effect on mouse S180 Ehrlich ascites tumor ([1]; protein 10.0 × 10^−9 mol/L) | OD450, inhibition effect on mouse S180 Ehrlich ascites tumor ([1]; protein 15.0 × 10^−9 mol/L) | OD450, promotion of cell proliferation ([2]; protein 5.0 × 10^−9 mol/L) | OD450, promotion of cell proliferation ([2]; protein 10.0 × 10^−9 mol/L) | OD450, promotion of cell proliferation ([2]; protein 15.0 × 10^−9 mol/L) | OD450, inhibition effect on melanoma ([3]; protein 5.0 × 10^−9 mol/L) | OD450, inhibition effect on melanoma ([3]; protein 10.0 × 10^−9 mol/L) | OD450, inhibition effect on melanoma ([3]; protein 15.0 × 10^−9 mol/L) | Inhibition rate ([4]; high-dosage 1 mg·kg^−1 (LZ-8)) | tumor weight ([4]; high-dosage 1 mg·kg^−1 (LZ-8)) [g] | Inhibition rate [4, 6] | tumor weight [4, 6] [g] | Inhibition rate [4, 7] | tumor weight [4, 7] [g] | platelets 3rd day [5, 8] | platelets 7th day [5, 8] | platelets 14th day [5, 8] | platelets after ([5]; 9.625 μg·kg^−1 group) | platelets before ([5]; 9.625 μg·kg^−1 group) | further results |
| --- | --- | --- | --- | --- | --- | --- | --- | --- | --- | --- | --- | --- | --- | --- | --- | --- | --- | --- | --- | --- | --- |
| B1 | 0.408 ± 0.21 | 0.233 ± 0.18 | 0.127 ± 0.15 | 0.936 ± 0.31 | 1.680 ± 0.38 | 2.373 ± 0.35 | 0.411 ± 0.31 | 0.212 ± 0.29 | 0.118 ± 0.11 | 29.3% | 0.21 ± 0.08 | 27.7% | 0.73 ± 0.03 | 56.4% | 0.44 ± 0.05 | 624 ± 0.43* *10^9/L | 697 ± 0.43* *10^9/L | 929 ± 0.61** *10^9/L | 261 ± 0.52 *10^9/L | 843 ± 0.65 *10^9/L | promotion of spleen cell proliferation compared with rLZ-8 ([2]; same protein concentration): better than the rLZ-8; platelets 3rd day [5, 9]: 760 ± 0.38* *10^9/L; platelets 7th day [5, 9]: 978 ± 0.67* *10^9/L; platelets 14th day [5, 9]: 1035 ± 0.78** *10^9/L; platelets after ([5]; 19.25 μg·kg^−1 group): 246 ± 0.36 *10^9/L; platelets before ([5]; 19.25 μg·kg^−1 group): 852 ± 0.82 *10^9/L; platelet recovery compared with the CP group ([5]; rLZ-8-HSA groups, p<0.05): returned to normal at the third day |
| B2 | 0.453 ± 0.23 | 0.366 ± 0.31 | 0.345 ± 0.27 | 0.739 ± 0.23 | 1.197 ± 0.31 | 1.567 ± 0.27 | 0.427 ± 0.44 | 0.372 ± 0.21 | 0.302 ± 0.24 | 45.5% and 43.5% | 0.57 ± 0.03 | 16.8% and 17.8% | 0.83 ± 0.03 | 25.7% and 26.7% | 0.74 ± 0.02 | 483 ± 0.45 *10^9/L | 585 ± 0.78 *10^9/L | 898 ± 0.61* *10^9/L | 201 ± 0.41 *10^9/L | 839 ± 0.40 *10^9/L | platelets 3rd day [5, 9]: 501 ± 0.48 *10^9/L; platelets 7th day [5, 9]: 680 ± 0.28 *10^9/L; platelets 14th day [5, 9]: 1021 ± 0.31** *10^9/L; platelets after ([5]; 19.25 μg·kg^−1 group): 226 ± 0.78 *10^9/L; platelets before ([5]; 19.25 μg·kg^−1 group): 946 ± 0.45 *10^9/L |

From patent publication US20160289280A1, “Fusion protein of recombinant ganoderma immunoregulatory protein and human serum albumin, preparation method thereof, and application thereof” (priority 2013, published 2016)
